Measured values published in patent publication US20250361525, “AAV VECTORS FOR GENE EDITING” (Scribe Therapeutics Inc., published 2025).

Target: T1, CasX variant 515 (synthetic construct)
T1 chain: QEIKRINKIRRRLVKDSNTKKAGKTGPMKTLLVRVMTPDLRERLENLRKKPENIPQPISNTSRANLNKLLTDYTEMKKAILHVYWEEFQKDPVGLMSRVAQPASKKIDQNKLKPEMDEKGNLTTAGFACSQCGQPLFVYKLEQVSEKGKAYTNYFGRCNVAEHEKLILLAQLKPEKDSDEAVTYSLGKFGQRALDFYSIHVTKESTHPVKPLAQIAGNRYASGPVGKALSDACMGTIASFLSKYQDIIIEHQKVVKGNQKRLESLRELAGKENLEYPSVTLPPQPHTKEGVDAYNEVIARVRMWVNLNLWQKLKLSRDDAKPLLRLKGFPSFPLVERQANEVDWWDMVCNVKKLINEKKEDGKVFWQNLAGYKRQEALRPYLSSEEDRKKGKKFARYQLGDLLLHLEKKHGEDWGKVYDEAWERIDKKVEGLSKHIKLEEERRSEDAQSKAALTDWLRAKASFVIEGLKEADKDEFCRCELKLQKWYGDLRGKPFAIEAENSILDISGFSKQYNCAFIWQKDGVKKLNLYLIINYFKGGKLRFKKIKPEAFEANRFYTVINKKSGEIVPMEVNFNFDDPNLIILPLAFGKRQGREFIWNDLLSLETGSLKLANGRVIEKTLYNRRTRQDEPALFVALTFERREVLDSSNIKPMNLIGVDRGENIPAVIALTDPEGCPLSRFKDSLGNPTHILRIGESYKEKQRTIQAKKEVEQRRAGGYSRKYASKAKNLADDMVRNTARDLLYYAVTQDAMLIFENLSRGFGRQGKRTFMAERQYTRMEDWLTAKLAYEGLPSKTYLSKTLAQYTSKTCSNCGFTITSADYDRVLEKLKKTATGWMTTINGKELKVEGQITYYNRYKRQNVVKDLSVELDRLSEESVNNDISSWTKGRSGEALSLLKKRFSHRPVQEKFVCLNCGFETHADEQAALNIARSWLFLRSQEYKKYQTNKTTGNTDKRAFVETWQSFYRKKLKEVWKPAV
Test: cleavage_in_vitro

B1: sgRNA 2.7.37 ; 7.37 target (ssRNA ; dsDNA)
RNA: UACUGGCGCUUUUAUCUCAUUACUUUGAGAGCCAUCACCAGCGACUAUGUCGUAUGGGUAAAGCGCUUAUUUAUCGGAGAGAAAUCCGAUAAAUAAGAAGCAUCAAAGGGCCGAGAUGUCUCGCUCCG
DNA 1: TGAAGCTGACAGCATTCGGGCCGAGATGTCTCGCTCCGTGGCCTTAGCTGTGCTCGCGCT
DNA 2: AGCGCGAGCACAGCTAAGGCCACGGAGCGAGACATCTCGGCCCGAATGCTGTCAGCTTCA
modifications: 5' amino modifier C6
activity: 0.0204 s⁻¹

B2: sgRNA 174.7.37 ; 7.37 target (ssRNA ; dsDNA)
RNA: ACUGGCGCUUUUAUCUGAUUACUUUGAGAGCCAUCACCAGCGACUAUGUCGUAGUGGGUAAAGCUCCCUCUUCGGAGGGAGCAUCAAAGGGCCGAGAUGUCUCGCUCCG
DNA 1: TGAAGCTGACAGCATTCGGGCCGAGATGTCTCGCTCCGTGGCCTTAGCTGTGCTCGCGCT
DNA 2: AGCGCGAGCACAGCTAAGGCCACGGAGCGAGACATCTCGGCCCGAATGCTGTCAGCTTCA
modifications: 5' amino modifier C6
activity: 0.0534 s⁻¹

B3: sgRNA 235.7.37 ; 7.37 target (ssRNA ; dsDNA)
RNA: ACUGGCGCUUCUAUCUGAUUACUCUGAGCGCCAUCACCAGCGACUAUGUCGUAGUGGGUAAAGCCGCUUACGGACUUCGGUCCGUAAGAGGCAUCAGAGGGCCGAGAUGUCUCGCUCCG
DNA 1: TGAAGCTGACAGCATTCGGGCCGAGATGTCTCGCTCCGTGGCCTTAGCTGTGCTCGCGCT
DNA 2: AGCGCGAGCACAGCTAAGGCCACGGAGCGAGACATCTCGGCCCGAATGCTGTCAGCTTCA
modifications: 5' amino modifier C6
activity: 0.0647 s⁻¹

B4: sgRNA 316.7.37 ; 7.37 target (ssRNA ; dsDNA)
RNA: ACUGGCGCUUCUAUCUGAUUACUCUGAGCGCCAUCACCAGCGACUAUGUCGUAGUGGGUAAAGCUCCCUCUUCGGAGGGAGCAUCAGAGGGCCGAGAUGUCUCGCUCCG
DNA 1: TGAAGCTGACAGCATTCGGGCCGAGATGTCTCGCTCCGTGGCCTTAGCTGTGCTCGCGCT
DNA 2: AGCGCGAGCACAGCTAAGGCCACGGAGCGAGACATCTCGGCCCGAATGCTGTCAGCTTCA
modifications: 5' amino modifier C6
activity: 0.0851 s⁻¹

B5: sgRNA 2.7.9 ; 7.9 target (ssRNA ; dsDNA)
RNA: UACUGGCGCUUUUAUCUCAUUACUUUGAGAGCCAUCACCAGCGACUAUGUCGUAUGGGUAAAGCGCUUAUUUAUCGGAGAGAAAUCCGAUAAAUAAGAAGCAUCAAAGGUGUAGUACAAGAGAUAGAA
DNA 1: TTTCAGTGGGGGTGAATTCAGTGTAGTACAAGAGATAGAAAGACCAGTCCTTGCTGAAAG
DNA 2: CTTTCAGCAAGGACTGGTCTTTCTATCTCTTGTACTACACTGAATTCACCCCCACTGAAA
modifications: 5' amino modifier C6
activity: 0.135 s⁻¹

B6: sgRNA 174.7.9 ; 7.9 target (ssRNA ; dsDNA)
RNA: ACUGGCGCUUUUAUCUGAUUACUUUGAGAGCCAUCACCAGCGACUAUGUCGUAGUGGGUAAAGCUCCCUCUUCGGAGGGAGCAUCAAAGGUGUAGUACAAGAGAUAGAA
DNA 1: TTTCAGTGGGGGTGAATTCAGTGTAGTACAAGAGATAGAAAGACCAGTCCTTGCTGAAAG
DNA 2: CTTTCAGCAAGGACTGGTCTTTCTATCTCTTGTACTACACTGAATTCACCCCCACTGAAA
modifications: 5' amino modifier C6
activity: 0.172 s⁻¹

B7: sgRNA 316.7.9 ; 7.9 target (ssRNA ; dsDNA)
RNA: ACUGGCGCUUCUAUCUGAUUACUCUGAGCGCCAUCACCAGCGACUAUGUCGUAGUGGGUAAAGCUCCCUCUUCGGAGGGAGCAUCAGAGGUGUAGUACAAGAGAUAGAA
DNA 1: TTTCAGTGGGGGTGAATTCAGTGTAGTACAAGAGATAGAAAGACCAGTCCTTGCTGAAAG
DNA 2: CTTTCAGCAAGGACTGGTCTTTCTATCTCTTGTACTACACTGAATTCACCCCCACTGAAA
modifications: 5' amino modifier C6
activity: 0.141 s⁻¹

B8: sgRNA 235.7.9 ; 7.9 target (ssRNA ; dsDNA)
RNA: ACUGGCGCUUCUAUCUGAUUACUCUGAGCGCCAUCACCAGCGACUAUGUCGUAGUGGGUAAAGCCGCUUACGGACUUCGGUCCGUAAGAGGCAUCAGAGGUGUAGUACAAGAGAUAGAA
DNA 1: TTTCAGTGGGGGTGAATTCAGTGTAGTACAAGAGATAGAAAGACCAGTCCTTGCTGAAAG
DNA 2: CTTTCAGCAAGGACTGGTCTTTCTATCTCTTGTACTACACTGAATTCACCCCCACTGAAA
modifications: 5' amino modifier C6
activity: 0.17 s⁻¹
